The text below walks through data of IntAct's records for PubMed 17187064.

B1: A-type potassium channel modulatory protein KCNIP1 (Homo sapiens), Q9NZI2 (parent)
chain: MGAVMGTFSSLQTKQRRPSKDIAWWYYQYQRDKIEDELEMTMVCHRPEGLEQLEAQTNFTKRELQVLYRGFKNECPSGVVNEDTFKQIYAQFFPHGDASTYAHYLFNAFDTTQTGSVKFEDFVTALSILLRGTVHEKLRWTFNLYDINKDGYINKEEMMDIVKAIYDMMGKYTYPVLKEDTPRQHVDVFFQKMDKNKDGIVTLDEFLESCQEDDNIMRSLQLFQNVM
partner: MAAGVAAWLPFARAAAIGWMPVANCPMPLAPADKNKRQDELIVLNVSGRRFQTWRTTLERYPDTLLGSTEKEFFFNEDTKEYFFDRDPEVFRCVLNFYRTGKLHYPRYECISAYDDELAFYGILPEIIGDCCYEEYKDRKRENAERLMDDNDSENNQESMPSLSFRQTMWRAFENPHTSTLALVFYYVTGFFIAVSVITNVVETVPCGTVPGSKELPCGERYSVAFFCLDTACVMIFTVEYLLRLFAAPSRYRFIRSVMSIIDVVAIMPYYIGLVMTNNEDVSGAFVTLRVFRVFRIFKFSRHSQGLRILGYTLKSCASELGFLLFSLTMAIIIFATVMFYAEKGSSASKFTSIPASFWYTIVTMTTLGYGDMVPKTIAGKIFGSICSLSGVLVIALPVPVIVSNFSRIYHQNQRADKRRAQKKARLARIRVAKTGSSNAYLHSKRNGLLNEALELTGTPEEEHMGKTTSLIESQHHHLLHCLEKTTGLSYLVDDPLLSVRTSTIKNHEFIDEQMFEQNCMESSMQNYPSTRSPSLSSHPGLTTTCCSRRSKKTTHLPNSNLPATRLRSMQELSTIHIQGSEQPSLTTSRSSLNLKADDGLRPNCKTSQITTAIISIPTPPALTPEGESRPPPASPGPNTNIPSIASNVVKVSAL
B2: A-type voltage-gated potassium channel KCND3 (Homo sapiens), Q9UK17 (parent)
chain: B1 partner
partner: B1 chain

The variants in one experiment derive from B1. Conditions: with kcnd3_human KCND3, Q9UK17.
As to MGAVMGTFSSLQTKQRRPSKDIAWWYYQYQRDKIEDELEMTMVCHRPEGLEQLEAQTNFTKRELQVLYRGFKNECPSGVVNEDTFKQIYAQFFPHGDASTYAHYLFNAFDTTQTGSVKFEDFVTALSILLRGTEHEKLRWTFNLYDINKDGYINKEEMMDIVKAIYDMMGKYTYPVLKEDTPRQHVDVFFQKMDKNKDGIVTLDEFLESCQEDDNIMRSLQLFQNVM [V134E], the “effect of a mutation on the interaction” value is given as “disrupting interaction”.

Variants of B2 are the subject of a further experiment. Particulars: with kcip1_human KCNIP1, Q9NZI2.
In the case of W8E;P10E;A15E, the “effect of a mutation on the interaction” value was “disrupting interaction”.
